Results taken from patent publication US7479482B2 (priority 2001, dated 2009).
Like-named read-outs stand apart in the source and are kept apart here.

Assays:
[1] = tested on: Tg2576 mice; conditions: mouse, in vivo
[2] = format: physicochemical
[3] = tested on: human neuroblastoma cell line (SK-N-SH)

Aβ1-42: amyloid β peptide 1-42, control peptide and comparison immunogen
radial arm maze skills [1]: had the radial arm maze skills of the positive control | alpha (secondary structure by CD) ([2]; Time 0 hr): 9% | beta-sheet (secondary structure by CD) ([2]; Time 0 hr): 36% | random (secondary structure by CD) ([2]; Time 0 hr): 55% | alpha (secondary structure by CD) ([2]; Time 24 hr): 9% | beta-sheet (secondary structure by CD) ([2]; Time 24 hr): 40% | random (secondary structure by CD) ([2]; Time 24 hr): 51% | alpha (secondary structure by CD) ([2]; Time 96 hr): 5% | beta-sheet (secondary structure by CD) ([2]; Time 96 hr): 55% | random (secondary structure by CD) ([2]; Time 96 hr): 40% | aggregates visible under the microscope in culture wells [3]: aggregates were visible | toxicity to neuroblastoma cells (MTT) [3]: toxic
